Measurements reported in PMC2652359.

Target: human factor Xa (human)
Experiment: functional titration of prothrombinase activity

Sequence of human factor Xa (human) (P00742 whole entry): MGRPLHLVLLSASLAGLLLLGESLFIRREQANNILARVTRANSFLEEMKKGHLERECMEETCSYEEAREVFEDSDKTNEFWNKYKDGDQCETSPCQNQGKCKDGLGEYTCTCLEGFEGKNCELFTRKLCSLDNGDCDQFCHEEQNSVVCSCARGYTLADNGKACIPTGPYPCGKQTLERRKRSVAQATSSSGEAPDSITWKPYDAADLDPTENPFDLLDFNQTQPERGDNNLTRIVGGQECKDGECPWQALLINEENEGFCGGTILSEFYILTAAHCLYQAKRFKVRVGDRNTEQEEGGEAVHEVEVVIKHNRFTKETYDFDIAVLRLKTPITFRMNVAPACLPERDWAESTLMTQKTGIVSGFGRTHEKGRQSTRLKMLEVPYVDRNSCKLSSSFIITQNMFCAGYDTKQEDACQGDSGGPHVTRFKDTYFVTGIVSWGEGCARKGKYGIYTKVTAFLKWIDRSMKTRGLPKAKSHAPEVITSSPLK

Kd: 0.24 nM
Substance: recombinant wild-type human factor Va (from UniProt P12259 29-737; P12259 1574-2224) (natural protein)
